IntAct's records for PubMed 16427013

B1: Protein NRD1 (Saccharomyces cerevisiae), P53617 (parent)
chain: MQQDDDFQNFVATLESFKDLKSGISGSRIKKLTTYALDHIDIESKIISLIIDYSRLCPDSHKLGSLYIIDSIGRAYLDETRSNSNSSSNKPGTCAHAINTLGEVIQELLSDAIAKSNQDHKEKIRMLLDIWDRSGLFQKSYLNAIRSKCFAMDISNNTANTASQQLSLDPKQRSKQILSNLKKSPPLNLNISLPTDLTSTDPAKQQAALFQVIAALQKHFKTLPSHTSVGTVAPPQAHTITEYGSRRERERERERYNSRRNRSRSPPAPFSQPSTGRKDRYPSVAQDQYSIGAPNTTFGTNNHHLYPDELNVSNNPHYRPKPVSYDSTLPPDHIKVYSRTLFIGGVPLNMKEWDLANVLKPFAEVQSVILNNSRKHAFVKVYSRHEAENVLQNFNKDGALPLRTRWGVGFGPRDCCDYQHGYSIIPMHRLTDADKKWSVSAQWGGTSGQPLVTGIVFEEPDIIVGEGVSSKAISQKMPTDSGRNGPRSGKPNKSGSISSISPVPYGNAPLASPPPQQYVQPMMQQPYGYAPNQPLPSQGPAAAAPPVPQQQFDPTAQLNSLMNMLNQQQQQQQQS
partner: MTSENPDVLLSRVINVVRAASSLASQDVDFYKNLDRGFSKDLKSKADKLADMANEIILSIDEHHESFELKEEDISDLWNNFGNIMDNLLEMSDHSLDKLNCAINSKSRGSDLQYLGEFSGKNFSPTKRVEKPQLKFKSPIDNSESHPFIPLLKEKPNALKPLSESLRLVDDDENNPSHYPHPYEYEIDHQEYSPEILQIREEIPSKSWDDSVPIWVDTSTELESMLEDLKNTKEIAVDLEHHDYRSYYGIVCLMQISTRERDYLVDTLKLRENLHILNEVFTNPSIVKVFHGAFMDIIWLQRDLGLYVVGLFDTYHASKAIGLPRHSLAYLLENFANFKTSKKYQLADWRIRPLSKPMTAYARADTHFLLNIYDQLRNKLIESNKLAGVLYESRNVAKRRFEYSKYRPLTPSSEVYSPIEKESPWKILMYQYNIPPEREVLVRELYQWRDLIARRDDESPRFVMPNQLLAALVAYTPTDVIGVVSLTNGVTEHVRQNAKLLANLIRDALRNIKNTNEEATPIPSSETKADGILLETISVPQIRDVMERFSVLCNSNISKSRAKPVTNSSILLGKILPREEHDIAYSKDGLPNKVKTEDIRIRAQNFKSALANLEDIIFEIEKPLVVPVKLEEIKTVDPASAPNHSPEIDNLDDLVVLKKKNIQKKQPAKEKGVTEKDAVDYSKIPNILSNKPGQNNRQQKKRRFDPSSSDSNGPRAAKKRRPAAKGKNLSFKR

Variants of: B1
Details: with rrp6_yeast RRP6, Q12149

Row | effect of a mutation on the interaction | Variant
1 | with no effect | V379R
